From patent US20240101702A1 (PRECISION BIOLOGICS, published 2024)

Biological target: T1, CEACAM8 (human, UniProt P31997 35-320, limits assumed)
T1 sequence (looked up): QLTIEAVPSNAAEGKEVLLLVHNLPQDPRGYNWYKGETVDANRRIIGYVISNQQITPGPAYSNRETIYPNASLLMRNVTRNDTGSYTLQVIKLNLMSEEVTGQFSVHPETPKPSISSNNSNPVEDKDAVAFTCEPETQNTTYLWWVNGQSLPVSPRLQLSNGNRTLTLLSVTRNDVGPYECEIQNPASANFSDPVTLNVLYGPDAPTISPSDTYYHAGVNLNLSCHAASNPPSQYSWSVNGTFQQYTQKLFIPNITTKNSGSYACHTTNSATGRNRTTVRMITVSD
Assay: in vitro assays using human tumor cell lines (method not detailed)

B1: NEO-201 humanized IgG1 monoclonal antibody (antibody, V domains shown)
VH: QVQLVQSGAEVKKPGASVKVSCKASGYTFTDYAMHWVRQAPGQRLEWMGLISTYSGDTKYNQNFQGRVTMTVDKSASTAYMELSSLRSEDTAVYYCARGDYSGSRYWFAYWGQGTLVTVSS
VL: DIQMTQSPSSLSASVGDRVTITCQASENIYGALNWYQRKPGKSPKLLIYGASNLATGMPSRFSGSGSGTDYTFTISSLQPEDIATYYCQQVLSSPYTFGGGTKLEIKR
notes: also called h16C3; H16C3-Abb*
  binding result: no binding
